Reference: article PMC7246340, “A Novel Anti-Kv10.1 Nanobody Fused to Single-Chain TRAIL Enhances Apoptosis Induction in Cancer Cells” (Frontiers in Pharmacology, 2020)
Residue numbers refer to the chain shown, from its start.

B1: h1x antigen (E3-S5-pore segment fused to the C-terminal coiled coil domain of Kv10.1 and to thioredoxin) (domain or fragment, human)
chain: IGDYEIFDEDTKTIRNNSWLYQLAMDIGTPYQFNGSGSGKWEGGPSKNSVYISSLYFTMTSLTSVGFGNIAPSTDIEK
notes: Kv10.1 voltage-gated potassium channel, E3 segment (extracellular linker between S5 and S6 transmembrane segments, extending to the pore loop); numbers count on: Homo sapiens Kv10.1, isoform 1 (UniProt O95259-2); Kv10.1 voltage-gated potassium channel, C-terminal tetramerizing coiled-coil (C-terminal assembly domain); The coiled coil was added with the aim to induce tetramerization; the …
B2: anti-Kv10.1 nanobody G1 (VHH)
VHH: VQLVEVWGRIGAKRGGSLRLSCTAAGRTFSSYILAWFRQAPGEERKFVAGITGNGETGYSNSVKGRFTISRDNAKNTVLLQMNNLKPEDTAVYYCAAHSRSIYYYRGPDLYDYWGQGTQVTVSS
notes: From a phage display library of a llama immunised with h1x; His tag comes from the phage display vector; source: E. coli TG1TR, culture supernatants (ELISA)
B3: G10 (VHH)
VHH: EVQLVESGGGLVQPGGSLRLSCTAAGRTFSTYILAWFRQAPGEERKFVAGITGNGETGYSNSVKGRFTIARDNAKNTVFLQMNNLKPEDTAVYYCAAHSRSTYYYKGPDLYDYGQGTQVTVSS
B4: anti-Kv10.1 nanobody F5 (VHH)
VHH: QVQLVQSGGGLVQAGGSLRLSCAASGRTFENYIMAWFRQAPGEERKFVAAITGNGGTGYADSVKGRFTISRDNAKNTVLLQMNSLKPEDTAVYYCAAHSRSSYYYKGPDLYDYWGQGTQVTVSS
notes: as for B2
B5: E12 (VHH)
VHH: EVQLVESGGGLVQAGGSLRLSCTASGRTFSSYIFAWFRQAPGEERKFVAGITGNGGTGYSNSVKGRFTISRDNAKNTVLLQMNNLKPDDTAVYYCAAHSRSSYYYRGPDLYDYWGQGTQVTVSS
B6: anti-Kv10.1 nanobody A12 (VHH)
VHH: B5 VHH with E1R, V2C, Q3K, V5Q, S25A, F34L, G56E, D88E, S102T
notes: as for B2
B7: anti-Kv10.1 nanobody F6 (VHH)
VHH: B5 VHH with E1Q, E6Q, S30G, F34L, A40T, N61D, D88E, R106K
notes: as for B2
B8: anti-Kv10.1 nanobody G4 (VHH)
VHH: B4 VHH with L18R, A23T, E30S, N31S, M34L, A35G, K106R
notes: as for B2
B9: anti-Kv10.1 nanobody VHH-C4 (VHH)
VHH: RLLLVQSGGGLVQAGGSLRLSCAASGRTFSNYAMYWFRQTPGKDREFVASISYSGTFTDYAGSVKGRFTISRDNAKNTLYLQMNSLRPEDTAVYYCSLDRHYWGPGTQVTVSS
notes: Short CDR3 (six residues); His tag comes from the phage display vector; The preparation used for SPR is not described; source: E. coli TG1TR, culture supernatants (ELISA)
B10: anti-Kv10.1 nanobody VHH-D9 (VHH)
VHH: B9 VHH with R1Q, L2V, L3Q, T78R, R87K, H101L, P105Q
notes: a model in PDB format is also in the Supplementary Information; Short CDR3 (six residues); His tag comes from the phage display vector; The preparation used for SPR is not described; source: E. coli TG1TR, culture supernatants (ELISA)

What was measured:
VHH-D9-scTRAIL = molecular target: T1, VHH-D9-scTRAIL (llama (Lama glama) | ); assay: ELISA; plates coated with 500 ng h1x or h2x, blocked with 3% BSA; Ab-scTRAIL constructs (CHO-K1 supernatants, not further purified) incubated 2 h at different concentrations; detected with the anti-TRAIL conjugate of the Quantikine TRAIL ELISA kit; apparent affinities; conditions: one partner purified
T1 construct: nanobody D9, as the VHH of m4 without its His tag; TRAIL (Tumor Necrosis Factor-Related Apoptosis-Inducing Ligand) fragment, first of three in single-chain TRAIL; short peptide linker between TRAIL fragments; TRAIL fragment, second of three in single-chain TRAIL; TRAIL fragment, third of three in single-chain TRAIL; a linker between VHH and scTRAIL is not described; Vector tags were eliminated by …

[1] = molecular target: B1; assay: ELISA; plates coated overnight with 500 ng h1x in TBS, blocked with 2% BSA; VHHs (E. coli culture supernatants) incubated 2 h at different concentrations; detected by mouse anti-His antibody and peroxidase-conjugated anti-mouse; apparent affinities; conditions: one partner purified
[2] = molecular target: B1
[3] = molecular target: B1; assay: SPR; recombinant antigen h1x immobilised on the chip; serial dilution of nanobody as analyte (D9 3.12 nM to 200 nM, C4 25 nM to 400 nM); 1:1 Langmuir model; conditions: both partners purified
[4] = molecular target: B1; assay: ELISA; plates coated overnight with 500 ng h1x in TBS, blocked with 2% BSA; VHHs (E. coli culture supernatants) incubated 2 h at different concentrations; detected by mouse anti-His antibody and peroxidase-conjugated anti-mouse; apparent affinities; conditions: one partner purified; remark: listed apart in the source

| Binder | Kd [1] [nM] | further results |
| --- | --- | --- |
| B1 | – | Kd (VHH-D9-scTRAIL): 0.029 nM |
| B2 | 431 | – |
| B3 | – | binding result [2]: binds |
| B4 | 470 | – |
| B5 | – | binding result [2]: binds |
| B6 | 343 | – |
| B7 | 177 | – |
| B8 | 943 | – |
| B9 | 87 | Kd [3]: 1800 nM; Kd [4]: 81 nM |
| B10 | 11 | Kd [3]: 78 nM |
